Like-named read-outs stand apart in the source and are kept apart here.

Experimental findings from article PMC11723922 are described below.

Assay in all cases: SPR; BIAcore X100; biotinylated Avi-tagged TβRI or TβRII captured on neutravidin-coupled CM-5 chip (max 150 RU); full-length TGM injected as twofold dilution series; HBS-EP, 25 mM HEPES, 150 mM NaCl, 0.005% P20, pH 7.4; 100 µL/min; 1:1 kinetic model
On the technique in general: SPR reads the build-up and loss of mass on a sensor chip optically.

Assay [1] addresses Biotinylated Avi-tagged human TβRI extracellular domain (human) (UniProt P36897).
The target of assay [2] is Biotinylated Avi-tagged human TβRII extracellular domain (human) (UniProt P37173).
Sequence of Biotinylated Avi-tagged human TβRII extracellular domain (human) (P37173 23-166): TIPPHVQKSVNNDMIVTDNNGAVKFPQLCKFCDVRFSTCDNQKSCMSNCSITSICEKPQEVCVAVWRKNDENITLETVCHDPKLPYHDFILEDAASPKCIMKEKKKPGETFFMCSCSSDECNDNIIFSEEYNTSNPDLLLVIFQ
Assay [3] concerns the target Biotinylated Avi-tagged human TβRI extracellular domain (human) (UniProt P36897). The source holds these as a separate data set.

Sequence of Biotinylated Avi-tagged human TβRI extracellular domain (human) (P36897 34-126): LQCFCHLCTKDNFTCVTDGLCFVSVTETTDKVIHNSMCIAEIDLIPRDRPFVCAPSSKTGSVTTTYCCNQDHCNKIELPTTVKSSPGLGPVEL

The substance “TGM1 full-length (D1-5), recombinant (natural protein)” displayed a Kd in assay [1] of 90 nM.

“TGM4 full-length (D1-5), recombinant (natural protein)”: the Kd was 5 nM in assay [1], 116000 nM in assay [2] and 3 to 5 nM in assay [3].

Usually Kd stands for the equilibrium constant for the complex coming apart. High values mean a looser complex, low ones a tighter complex.
